These results are taken from article PMC5150216, “Actin activates Pseudomonas aeruginosa ExoY nucleotidyl cyclase toxin and ExoY-like effector domains from MARTX toxins” (Nature Communications, 2016).

In assay [1] the target is T1, α-actin from rabbit skeletal muscle (rabbit, UniProt P68135 1-377). Put plainly: co-sedimentation; as a6, F-actin with 6 μM phalloidin. The note with it: both partners purified.
Assay [2] deals with T1, α-actin from rabbit skeletal muscle. Put plainly: co-sedimentation. Conditions: both partners purified.

B1: MBP-ExoY^K81M-ST (enzyme)
chain: MRIDGHRQVVSNATAQPGPLLRPADMQARALQDLFDAQGVGVPVEHALRMQAVARQTNTVFGIRPVERIVTTLIEEGFPTMGFSVKGKSSNWGPQAGFICVDQHLSKREDRDTAEIRKLNLAVAKGMDGGAYTQTDLRISRQRLAELVRNFGLVADGVGPVRLLTAQGPSGKRYEFEARQEPDGLYRISRLGRSEAVQVLASPACGLAMTADYDLFLVAPSIEAHGSGGLDARRNTAVRYTPLGAKDPLSEDGFYGREDMARGNITPRTRQLVDALNDCLGRGEHREMFHHSDDAGNPGSHMGDNFPATFYLPRAMEHRVGEESVRFDEVCVVADRKSFSLLVECIKGNGYHFTAHPDWNVPLRPSFQEALDFFQRKV
notes: also called His-MBP-ExoY^K81M-ST; source: expressed from pEA12 (Ptac promoter); purified under non-denaturing conditions (HisTrap, StrepTrap, Superdex 200); not shown: His-tag, N-terminal, kept; MBP, N-terminal, kept; Strep-tagII, C-terminal, kept
In the case of B1, the Kd is 1600 to 1800 nM in assay [1] and 1600 ± 300 nM in assay [2]. Further, the “stoichiometry N” value in assay [2] is 1.
